We go through one protein from publication doi:10.1101/2020.07.27.223248 (bioRxiv, 2020).

The data set concerns the molecule itself. The data set can be described thus: cryo-EM structure.

B1: FljK T103C N130S, straightened flagellar filament (natural protein, C. crescentus, UniProt P18913 1-273, looked up)
chain: MALNSINTNAGAMIALQNLNGTNSELTTVQQRINTGKKIASAKDNGAIWATAKNQSATAASMNAVKDSLQRGQSTIDVALAAGDTITDLLGKMKEKALAASDCSLNTASFNALKSDFDSLRDQIEKAATSAKFNGVSIADGSTTKLTFLANSDGSGFTVNAKTISLAGIGLTTTSTFTTAAAAKTMIGTIDTALQTATNKLASLGTSSVGLDTHLTFVGKLQDSLDAGVGNLVDADLAKESAKLQSLQTKQQLGVQALSIANQSSSSILSLFR
modifications: post-translational modifications on conserved surface threonine residues, likely O-linked glycans (positions not given)
As to B1, the binding result is “binds”.
